From patent US20260125455A1 (CLEVELAND CLINIC FOUNDATION, published 2026)

Key:
[1] = target: T1, human complement protein C6 (human, UniProt P13671 22-934); experiment: ELISA, C6-coated wells, purified antibody
T1 construct: also called human C6; C6 antigen

[2] = target: T1, human complement protein C6; experiment: ELISA, purified protein, anti-human IgG (Fab-specific) detection
Procedure: The binding of the purified chimeric molecules, MoC601 HuG4K and MoC601 HuG1KFab, was also confirmed by ELISA, where the anti-human IgG (Fab-specific) secondary reagent was used. The control mouse antibody bound as previously (EC₅₀ 0.11 nM). The EC₅₀ for purified MoC601 HuG4K (0.27 nM) was similar to that obtained for the MoC601 HuG4K supernatant sample above. […] The EC₅₀ value for the Fab molecule (0.48 nM) was higher than for the antibody, which would be expected since the Fab is unable to bind bivalently to the antigen on the well. A C6-binding assay was also set up on the Octet RED384 instrument. […] However, MoC601 MoG1K could be stably loaded onto anti-mouse Fc (AMC) biosensors. Concentrations of the mouse and chimeric antibodies were adjusted to give similar levels of loading on to the AMC and […]

[3] = target: T1, human complement protein C6; experiment: ELISA, expression supernatant, anti-human IgG (Fab-specific) detection
Procedure: The chimeric molecules, MoC601 HuG4K and MoC601 HuG1KFab, were tested for C6 binding in the form of expression supernatants. In this experiment, the human molecules were detected with an HRP-conjugated goat anti-human kappa chain reagent, which gave relative low signals. However, the binding of both chimeric molecules to C6 was confirmed. The EC₅₀ value for MoC601 HuG4K (0.43 nM) was higher than that of the mouse antibody (0.07 nM), though this was lower than in previous experiments. A further experiment was performed to find a more suitable anti-human antibody detection reagent. MoC601 HuG4K from expression supernatant was detected with three different secondary antibodies. Both anti-human IgG Fc-specific and Fab-specific detection gave higher signals than the anti-kappa chain reagent but the Fc-specific detection yielded a very low EC₅₀ (0.03 nM).

[4] = target: T1, human complement protein C6; experiment: BLI (Octet), antibody on Protein G biosensors, 1:1 fit, experiment 1
[5] = target: T1, human complement protein C6; experiment: BLI (Octet), antibody on Protein G biosensors, 1:1 fit, experiment 2
[6] = target: T1, human complement protein C6; experiment: C6-binding ELISA, A650 nm; sample 'mouse serum' (28 days at 37 C)
Procedure: For the serum stability assessment, samples of the purified candidate antibodies are normally incubated in mouse, human and cynomolgus serum at 37 C for 28 days and then tested in an antigen-binding ELISA. Since the anti-C6 antibodies are expected to bind to both human and cynomolgus C6 but not mouse C6, we anticipated that incubating in human or cynomolgus sera would reduce ELISA binding due to occupation of the antibody binding sites by C6 protein from the sera. Therefore, the chimeric and humanized antibodies were tested with human and mouse sera and with human sera from which the C6 protein has been depleted. […]
Binding ELISAs used Nunc Maxisorp 384-well plates, wells coated with C6, C5b,6 complex or C5 (Complement Technology Inc, TX) and goat anti-human IgG (Fab specific) peroxidase secondary antibodies (Sigma-Aldrich, A0293) for detection. For the thermal stability assay, IgG supernatants were diluted to their EC₈₀ concentration, incubated at different temperatures for 10 min and C6 binding measured by ELISA with the binding signal plotted against temperature. Kinetics of C6 binding were measured by capturing antibodies from supernatant samples using Protein G biosensors and performing a 20 min association step with 2.5 nM C6 and a 20 min dissociation step using the Octet RED96. […]

[7] = target: T1, human complement protein C6; experiment: ELISA, C6-coated wells, large-scale purified antibody
[8] = target: T1, human complement protein C6; experiment: C6-binding ELISA, A650 nm; sample 'mouse serum' (28 days at 37 C); remark: listed apart in the source
Procedure: For the serum stability assessment, samples of the purified candidate antibodies are normally incubated in mouse, human and cynomolgus serum at 37 C for 28 days and then tested in an antigen-binding ELISA. Since the anti-C6 antibodies are expected to bind to both human and cynomolgus C6 but not mouse C6, we anticipated that incubating in human or cynomolgus sera would reduce ELISA binding due to occupation of the antibody binding sites by C6 protein from the sera. Therefore, the chimeric and humanized antibodies were tested with human and mouse sera and with human sera from which the C6 protein has been depleted. The C6-binding ELISA was then used to compare the binding abilities of the C601 antibodies that had been incubated in the 3 different sera to antibody samples that were incubated in PBS at 37 C or kept at 4 C (non-incubated).
The Uncle instrument (Unchained Labs) was used to monitor unfolding via intrinsic fluorescence and aggregation by static light scattering across a temperature gradient to obtain melting temperatures (Tₘ). […] Isoelectric points were determined by capillary isoelectric focusing using a PA800+ (Beckman Coulter). […]

T1 sequence (P13671 22-934 limits assumed): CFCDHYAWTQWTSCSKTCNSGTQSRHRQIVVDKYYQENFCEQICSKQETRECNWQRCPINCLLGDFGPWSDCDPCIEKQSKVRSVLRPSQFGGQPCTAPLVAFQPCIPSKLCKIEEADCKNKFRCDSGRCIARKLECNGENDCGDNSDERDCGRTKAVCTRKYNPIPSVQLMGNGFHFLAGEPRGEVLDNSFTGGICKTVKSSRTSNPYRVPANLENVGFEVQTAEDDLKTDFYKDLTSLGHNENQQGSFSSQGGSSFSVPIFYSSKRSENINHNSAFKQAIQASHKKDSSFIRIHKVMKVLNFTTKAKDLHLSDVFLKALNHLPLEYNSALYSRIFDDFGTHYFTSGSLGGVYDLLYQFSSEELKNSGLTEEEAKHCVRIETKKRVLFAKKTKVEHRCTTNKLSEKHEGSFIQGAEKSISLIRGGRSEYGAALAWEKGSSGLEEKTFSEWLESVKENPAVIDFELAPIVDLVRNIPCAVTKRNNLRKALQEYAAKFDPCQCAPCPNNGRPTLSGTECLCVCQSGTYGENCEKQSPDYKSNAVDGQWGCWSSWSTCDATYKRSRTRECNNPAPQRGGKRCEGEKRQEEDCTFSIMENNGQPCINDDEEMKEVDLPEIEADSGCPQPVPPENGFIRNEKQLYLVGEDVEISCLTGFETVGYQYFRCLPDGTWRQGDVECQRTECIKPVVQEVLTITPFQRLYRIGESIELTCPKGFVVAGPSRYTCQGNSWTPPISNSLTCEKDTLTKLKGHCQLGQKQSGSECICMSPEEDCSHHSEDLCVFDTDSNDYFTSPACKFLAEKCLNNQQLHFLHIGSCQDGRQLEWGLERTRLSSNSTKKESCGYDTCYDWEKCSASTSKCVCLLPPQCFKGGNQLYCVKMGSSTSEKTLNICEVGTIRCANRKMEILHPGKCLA

Binder	EC50 [1]	EC50 [2]	EC50 [3]	Kd [4]	koff [4]	kon [4]	Kd [5]	koff [5]	kon [5]	EC50 [6]	EC50 [7]	EC50 [8]
MoC601 HuG4K (chimeric C601 antibody) (antibody, human IgG4 S228P, kappa, V domains shown, also called chimeric antibody; chimeric 1C9) VH: QVQLQQSGAELVKPGASVKISCKASGYAFSDYWMNWVKQRPGKGLEWIGQIYPGDDDTNYNGKFKGKATLTADKSSSTAYMQLSSLTSEDSAVYFCAREGYYGYTYVEYFDVWGTGTTVTVSS VL: QIVLTQSPAIMSVSPGEKVTLTCSASSSVSYMHWYQQKSGTSPKRWIYDTSKLASGVPARFSGSGSGTSYSLTISSMEAEDAATYYCQQWTSNPLTFGAGTKLELRR	0.2 nM	0.27 nM	0.3 nM	0.36 nM	0.00025 s⁻¹	690000 M⁻¹ s⁻¹	0.35 nM	0.00024 s⁻¹	690000 M⁻¹ s⁻¹	0.19 nM		
C601HFKC4 HuG4K (antibody, human IgG4 S228P, kappa, also called 3713; clone 3713) heavy: not shown light: QIVLTQSPATLSLSPGERATLSCRASSSVSYLHWYQQKPGQSPRLWIYDTSKRATGIPARFSGSGSGTDYTLTISSLEPEDFAVYYCQQWTSNPLTFGQGTKLEIKRTVAAPSVFIFPPSDEQLKSGTASVVCLLNNFYPREAKVQWKVDNALQSGNSQESVTEQDSKDSTYSLSSTLTLSKADYEKHKVYACEVTHQGLSSPVTKSFNRGEC											0.19 nM	0.15 nM
